This note sets out measurements from publication PMC8484813, “Structure and substrate specificity determinants of NfnB, a dinitroaniline herbicide–catabolizing nitroreductase from Sphingopyxis sp. strain HMH” (The Journal of Biological Chemistry, 2021).

As a reminder, the stoichiometry N is a count of units in the complex or per binding partner. By kcat is commonly meant the number of substrate molecules converted per active site and unit of time at saturation.

One data set addresses T1, NfnB (Sphingopyxis granuli, UniProt A0A411G9W7).
T1 construct: full-length gene in modified pET28b, N-terminal His6 tag with TEV site, E. coli BL21(DE3); tag kept for activity assays, tag-free for crystals
T1 sequence (A0A411G9W7 1-233): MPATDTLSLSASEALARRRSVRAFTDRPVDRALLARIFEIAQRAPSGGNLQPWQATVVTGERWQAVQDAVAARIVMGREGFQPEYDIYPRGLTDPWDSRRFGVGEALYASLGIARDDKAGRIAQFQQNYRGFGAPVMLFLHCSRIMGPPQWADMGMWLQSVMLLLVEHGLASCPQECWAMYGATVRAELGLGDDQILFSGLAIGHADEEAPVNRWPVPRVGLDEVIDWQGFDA
Kind of data set: X-ray crystal structure, […] Å. The conditions noted are these: tag-free protein; FMN in pocket at dimer interface. The data set is classed as binding.

Data set [1] concerns the target NfnB from Sphingopyxis sp. strain HMH (wildtype) (Sphingopyxis sp. strain HMH). Kind of data set: SEC; Superdex 200 column, buffer A (50 mM Tris pH 8.0, 100 mM NaCl); elution peak compared with the monomeric molecular weight. (In general: In gel filtration, larger molecules generally elute earlier.)
Substrate in data set [2]: CCC(CC)Nc1c([N+](=O)[O-])cc(C)c(C)c1[N+](=O)[O-]
Kind of data set: purified protein. The data set is classed as biochemical, Sphingopyxis granuli. The conditions noted are these: 50 mM Tris pH 7.5, 30 °C.

Substrate in data set [3]: CCC(C)Nc1c([N+](=O)[O-])cc(C(C)(C)C)cc1[N+](=O)[O-]
Kind of data set: purified protein. Type of data set: biochemical, Sphingopyxis granuli. The conditions noted are these: 50 mM Tris pH 7.5, 30 °C.

Substrate in data set [4]: CCCN(CCC)c1c([N+](=O)[O-])cc(C(C)C)cc1[N+](=O)[O-]
Kind of data set: purified protein. The conditions noted are these: 50 mM Tris pH 7.5, 30 °C.

Substrate in data set [5]: NC(=O)C1=CN([C@@H]2O[C@H](COP(=O)(O)OP(=O)(O)OC[C@H]3O[C@@H](n4cnc5c(N)ncnc54)[C@H](OP(=O)(O)O)[C@@H]3O)[C@@H](O)[C@H]2O)C=CC1
Kind of data set: purified protein. Type of data set: biochemical, Sphingopyxis granuli. Particulars: 12.5 μM butralin, 50 mM Tris pH 7.5, 30 °C, electron donor.

Substrate in data set [6]: CCC(CC)Nc1c([N+](=O)[O-])cc(C)c(C)c1[N+](=O)[O-]
Kind of data set: purified protein. Particulars: pH 7.5; 30.0 °C.

Substrate in data set [7]: NC(=O)C1=CN([C@@H]2O[C@H](COP(=O)(O)OP(=O)(O)OC[C@H]3O[C@@H](n4cnc5c(N)ncnc54)[C@H](OP(=O)(O)O)[C@@H]3O)[C@@H](O)[C@H]2O)C=CC1
Kind of data set: purified protein. The conditions noted are these: pH 7.5; 30.0 °C.

Substrate in data set [8]: CCC(C)Nc1c([N+](=O)[O-])cc(C(C)(C)C)cc1[N+](=O)[O-]
Kind of data set: purified protein. Particulars: pH 7.5; 30.0 °C.

For the molecule `Cc1cc2nc3c(=O)[nH]c(=O)nc-3n(C[C@H](O)[C@H](O)[C@H](O)COP(=O)(O)O)c2cc1C` [FMN], the “X-ray crystal structure, 2.1 Å” value on NfnB was “We determined the crystal structure of NfnB in the presence of coenzyme FMN”.

As to “NfnB from Sphingopyxis sp. strain HMH (wildtype) (enzyme)”, the stoichiometry N in [1] amounted to 2.

B1: NfnB (Sphingopyxis granuli; Y88A) (protein)
chain: MPATDTLSLSASEALARRRSVRAFTDRPVDRALLARIFEIAQRAPSGGNLQPWQATVVTGERWQAVQDAVAARIVMGREGFQPEYDIAPRGLTDPWDSRRFGVGEALYASLGIARDDKAGRIAQFQQNYRGFGAPVMLFLHCSRIMGPPQWADMGMWLQSVMLLLVEHGLASCPQECWAMYGATVRAELGLGDDQILFSGLAIGHADEEAPVNRWPVPRVGLDEVIDWQGFDA
notes: full-length gene in modified pET28b, N-terminal His6 tag with TEV site, E. coli BL21(DE3); tag kept for activity assays, tag-free for crystals
As for B1, the Km was 2.9 (0.18) μM in the data set “purified protein [2]” (200 μM NADPH), 0.59 (0.077) μM in the data set “purified protein [3]” (200 μM NADPH) and 0.83 (0.16) μM in the data set “purified protein [4]” (200 μM NADPH). The kcat in the data set “purified protein [2]” (200 μM NADPH) stood at 2.5 s⁻¹; in the data set “purified protein [3]” (200 μM NADPH), 2.1 s⁻¹; in the data set “purified protein [4]” (200 μM NADPH) it was 1.2 s⁻¹.

B2: NfnB (Sphingopyxis granuli; R100M) (protein)
chain: MPATDTLSLSASEALARRRSVRAFTDRPVDRALLARIFEIAQRAPSGGNLQPWQATVVTGERWQAVQDAVAARIVMGREGFQPEYDIYPRGLTDPWDSRMFGVGEALYASLGIARDDKAGRIAQFQQNYRGFGAPVMLFLHCSRIMGPPQWADMGMWLQSVMLLLVEHGLASCPQECWAMYGATVRAELGLGDDQILFSGLAIGHADEEAPVNRWPVPRVGLDEVIDWQGFDA
notes: as for B1
In the case of B2, in the data set “purified protein [5]”, the Km was 95 (20) μM and the kcat was found to be 4.9 s⁻¹.

B3: NfnB (Sphingopyxis granuli; R100A) (protein)
chain: MPATDTLSLSASEALARRRSVRAFTDRPVDRALLARIFEIAQRAPSGGNLQPWQATVVTGERWQAVQDAVAARIVMGREGFQPEYDIYPRGLTDPWDSRAFGVGEALYASLGIARDDKAGRIAQFQQNYRGFGAPVMLFLHCSRIMGPPQWADMGMWLQSVMLLLVEHGLASCPQECWAMYGATVRAELGLGDDQILFSGLAIGHADEEAPVNRWPVPRVGLDEVIDWQGFDA
notes: as for B1
For the molecule B3, in the data set “purified protein [5]”, the Km is 58 (4.5) μM and the kcat came out at 3.9 s⁻¹.

B4: NfnB (Sphingopyxis granuli) (protein)
chain: MPATDTLSLSASEALARRRSVRAFTDRPVDRALLARIFEIAQRAPSGGNLQPWQATVVTGERWQAVQDAVAARIVMGREGFQPEYDIYPRGLTDPWDSRRFGVGEALYASLGIARDDKAGRIAQFQQNYRGFGAPVMLFLHCSRIMGPPQWADMGMWLQSVMLLLVEHGLASCPQECWAMYGATVRAELGLGDDQILFSGLAIGHADEEAPVNRWPVPRVGLDEVIDWQGFDA
Turning to B4, the Km in “purified protein [6]” is recorded as 6.8 (1.7) μM; in “purified protein [7]”, 7.3 (1.4) μM; in the data set “purified protein [8]”, 2.4 (0.50) μM.

B5: NfnB (Sphingopyxis granuli; Y88F) (protein)
chain: MPATDTLSLSASEALARRRSVRAFTDRPVDRALLARIFEIAQRAPSGGNLQPWQATVVTGERWQAVQDAVAARIVMGREGFQPEYDIFPRGLTDPWDSRRFGVGEALYASLGIARDDKAGRIAQFQQNYRGFGAPVMLFLHCSRIMGPPQWADMGMWLQSVMLLLVEHGLASCPQECWAMYGATVRAELGLGDDQILFSGLAIGHADEEAPVNRWPVPRVGLDEVIDWQGFDA
notes: as for B1
In the case of B5, the values for the Km in “purified protein [2]” (100 μM NADPH), in the data set “purified protein [3]” (100 μM NADPH) and in “purified protein [4]” (100 μM NADPH) were 1.6 (0.28) μM, 0.81 (0.12) μM and 2.7 (0.17) μM, respectively. Also, the kcat in the data set “purified protein [2]” (100 μM NADPH) amounted to 3.6 s⁻¹; in “purified protein [3]” (100 μM NADPH), 4 s⁻¹; in “purified protein [4]” (100 μM NADPH), 0.66 s⁻¹.
